# T1: HMGB1 (Homo sapiens, UniProt P09429)
# T1 sequence (P09429 1-215): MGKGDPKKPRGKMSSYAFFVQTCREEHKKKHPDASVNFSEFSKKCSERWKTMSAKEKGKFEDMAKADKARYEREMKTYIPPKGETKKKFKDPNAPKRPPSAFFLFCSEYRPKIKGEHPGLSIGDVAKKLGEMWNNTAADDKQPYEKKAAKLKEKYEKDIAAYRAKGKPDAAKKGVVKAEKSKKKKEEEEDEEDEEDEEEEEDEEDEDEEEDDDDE
# B1: protein VII: mature protein VII of human adenovirus type 5 (SEQ ID NO:1), expressed in cells, mostly with C-terminal HA tag (protein)
# chain: AKKRSDQHPVRVRGHYRAPWGAHKRGRTGRTTVDDAIDAVVEEARNYTPTPPPVSTVDAAIQTVVRGARRYAKMKRRRRRVARRHRRRPGTAAQRAAAALLNRARRTGRRAAMRAARRLAAGIVTVPPRSRRRAAAAAAAAISAMTQGRRGNVYWVRDSVSGLRVPVRTRPPRN
# modifications: C-terminal HA tag; Human adenovirus 5
# What was measured:
# Assay type in all cases: cell-based
# [1] = test system: HMGB1 domains (A box, B box, acidic tail); assay: Immunofluorescence of HMGB1-GFP domain constructs upon protein VII-HA expression; conditions: A549 cells, 2 days after transfection
# Method: Cells were grown on glass coverslips in 24-well plates and either infected or induced with doxycycline (0.2 μg/mL). Cells were harvested for immunofluorescence at the indicated time points, washed in phosphate-buffered saline (PBS), fixed in 4% paraformaldehyde for 15 minutes and post-fixed with 100% ice-cold methanol for 5 minutes. Coverslips were then blocked and stained as described (Lilley et al. (2011) PLoS Pathog., 7:e1002084) and mounted using ProLong Gold Antifade Reagent (Life Technologies). Immunofluorescence was visualized using a Zeiss LSM Confocal microscope and ZEN 2011 software. Images were processed using ImageJ and assembled with Adobe CS6. All scale bars show in the Figures are 10 μm unless otherwise stated.
# FIG. 8A provides a schematic of the different GFP constructs expressing distinct HMGB1 domains. […] Immunofluorescence of the HMGB1-GFP constructs 2 days after transfection of A549s cells under control conditions or upon expression of Ad5 protein VII-HA is shown in FIG. 8B. […] Only full-length HMGB1 and the HMGB1 A box are relocalized upon expression of protein VII. […] Next we tested the immobilization of this construct in chromatin upon protein VII expression.
# cellular chromatin = assay: Chromatin appearance in inducible cell lines (immunofluorescence, DAPI); conditions: inducible expression
# Source text: Primary small airway epithelial cells (SAECs), U2OS, HeLa, 293, THP-1 and A549 cells were obtained from the American Tissue Culture Collection (ATCC) and grown according to the provider's instructions. Acceptor cells for generation of inducible cell lines were used as reported (Khandelia et al. (2011) Proc. Natl. Acad. Sci., 108:12799-12804). Protein VII, preVII and V were cloned from genomic DNA isolated from HeLa cells infected with adenovirus type 5 and inserted into the inducible plasmid cassette with a C-terminal HA tag using restriction enzymes BsrGI and AgeI. Positive clones were selected in DH5a cells, sequenced, and transfected into A549, U2OS or HeLa acceptor cells along with plasmid expressing the Cre recombinase. Recombined clones were selected by puromycin resistance (1 μg/mL) and induced with doxycycline (0.2 μg/mL) to express the desired protein. Protein expression was verified by immunofluorescence and western blot. All figures shown are after 4 days of induction unless otherwise stated. Protein VII and preVII were also verified by HPLC purification and mass spectrometry analysis. Point mutations were generated by gene synthesis from Genewiz.
# Cells were grown on glass coverslips in 24-well plates and either infected or induced with doxycycline (0.2 μg/mL). […]
# HMGB1 [2] = molecular target: T1, HMGB1; assay: Release assay of HMGB1 in THP-1 cells; parameters: endogenous in cells; conditions: PMA-treated THP-1 cells, LPS plus nigericin
# Method: THP-1 cells were seeded at a density of 2×10^5 cells per well in a 24-well plate, and stimulated into macrophage-like cells by addition of 10 ng/mL PMA for 48 hours. Cells were washed in PBS and transduced with recombinant adenovirus vectors expressing only GFP or protein VII-GFP such that >90% of cells were GFP positive. At 48 hours post transduction, cells were washed and 200 μL of serum free RPMI was added. To stimulate the inflammasome, LPS (Sigma-Aldrich L2880) with a final concentration of 0.5 μg/mL was added to wells and incubated for 2 hours, then nigericin (Sigma-Aldrich N7143) was added with a final concentration of 10 μM for 1 hour. Supernatants were collected and proteins precipitated overnight at 4° C. with a final concentration of 20% trichloroacetic acid (Sigma), washed with acetone, dried, and resuspended in 1×sample buffer with reducing agent (Invitrogen). For ELISA analysis, supernatants were harvested directly and HMGB1 content was detected by the manufacturer's instructions (Chondrex 6010). Cells were also harvested by the addition of 1×sample buffer with reducing agent (Invitrogen) and boiled. Supernatants and lysates were analyzed together by western blot.
# HMGB1 [3] = molecular target: T1, HMGB1; assay: Precision cut lung slice (PCLS) immunofluorescence; parameters: tissue National Disease Research Interchange (NDRI); host or cells: human precision cut lung slices; conditions: PCLS from human donors
# Method: PCLS were obtained and prepared as described (Cooper et al. (2008) J. Allergy Clin. Immunol., 122:734-740; Koziol-White et al. (2011) Expert Rev. Respir. Med., 5:767-777). De-identified human lung tissue from donors was obtained from the National Disease Research Interchange (NDRI), Philadelphia, Pa. Samples were infected with 10^8 pfu of Ad5 per slice or 10^9 GC of rAd VII-GFP for 24 hours. Samples were fixed in 4% PFA at room temperature for 15 minutes and washed three times in PBS. Samples were permiabilized with 0.5% Triton X and washed twice more in PBS. Samples were then incubated with 3% BSA and 0.03% Triton X in PBS for 1 hour to block. Primary antibodies (DBP or HMGB1) were incubated in the same buffer for 1 hour and then samples were washed three times in PBS with 3% BSA, incubated with secondary antibodies and DAPI for 1 hour, and washed three more times. Whole slices were mounted on slides with mounting solution and imaged by confocal microscopy.
molecule,measurement,setting,value
B1,Relocalization of HMGB1 A box,[1],relocalizes
same,Effect on chromatin appearance,cellular chromatin,altered nuclear DNA into a punctate appearance
same,HMGB1 in supernatants,HMGB1 [2],reduced levels
same,Relocalization of endogenous HMGB1 in lung slices,HMGB1 [3],sufficient to relocalize endogenous HMGB1

# Reference: patent publication US20190276499A1, “Protein VII Fragments and Methods of Use Thereof for the Treatment of Inflammatory Disorders” (priority 2016, published 2019)
